Results on 19 substances are retold here after IntAct's records for PubMed 20608975.

Experiment [1] concerns the target gors2_rat Gorasp2 (UniProt Q9R064).
The target is the same in experiment [2]. The source holds these as a separate data set.
In another experiment the target is mmp14_human MMP14 (UniProt P50281).
The target of experiment [3] is gors2_rat Gorasp2 (UniProt Q9R064). This is another data set of the same source.
Experiment [4] has the same target. This is another data set of the same source.
Experiment [5] has the same target. The source holds these as a separate data set.
Experiment [6] shares this target. This is another data set of the same source.

Consider “Matrix metalloproteinase-14 (Homo sapiens) (from UniProt P50281) L571A”, for which the “effect of a mutation on the interaction” value in the experiment with gors2_rat Gorasp2 [1] is “disrupting interaction”.

“Matrix metalloproteinase-14 (Homo sapiens) (from UniProt P50281) L579A”: the “effect of a mutation on the interaction” value with gors2_rat Gorasp2 [2] was “decreasing interaction”. On to “Golgi reassembly-stacking protein 2 (Rattus norvegicus (Rat)) (from UniProt Q9R064) G2A”, for which the “effect of a mutation on the interaction” value with mmp14_human MMP14 is recorded as “disrupting interaction”. With “Matrix metalloproteinase-14 (Homo sapiens) (from UniProt P50281) R569A”, the “effect of a mutation on the interaction” value with gors2_rat Gorasp2 [3] is recorded as “decreasing interaction”.

“Matrix metalloproteinase-15 (Homo sapiens), P51511 L659A”: the “effect of a mutation on the interaction” value in the experiment with gors2_rat Gorasp2 [4] was “decreasing interaction”. As for “Matrix metalloproteinase-14 (Homo sapiens) (from UniProt P50281) G566A”, the “effect of a mutation on the interaction” value with gors2_rat Gorasp2 [5] is recorded as “decreasing interaction”. On to “Matrix metalloproteinase-14 (Homo sapiens) (from UniProt P50281) L572A”, for which the “effect of a mutation on the interaction” value with gors2_rat Gorasp2 [1] is recorded as “disrupting interaction”. Turning to “Matrix metalloproteinase-14 (Homo sapiens) (from UniProt P50281) S577A”, in the experiment with gors2_rat Gorasp2 [2], the “effect of a mutation on the interaction” value was “decreasing interaction”.

“Matrix metalloproteinase-14 (Homo sapiens) (from UniProt P50281) R576A”: in the experiment with gors2_rat Gorasp2 [6], the “effect of a mutation on the interaction” value is “decreasing interaction”. “Matrix metalloproteinase-14 (Homo sapiens) (from UniProt P50281) P568A”: the “effect of a mutation on the interaction” value in the experiment with gors2_rat Gorasp2 [3] is “decreasing interaction”. For the substance “Matrix metalloproteinase-14 (Homo sapiens) (from UniProt P50281) T567A”, the “effect of a mutation on the interaction” value with gors2_rat Gorasp2 [5] is “decreasing interaction”. “Matrix metalloproteinase-14 (Homo sapiens) (from UniProt P50281) R570A”: the “effect of a mutation on the interaction” value in the experiment with gors2_rat Gorasp2 [3] is listed as “decreasing interaction”.

For the substance “Matrix metalloproteinase-14 (Homo sapiens) (from UniProt P50281) Q575A”, the “effect of a mutation on the interaction” value with gors2_rat Gorasp2 [6] is reported as “decreasing interaction”.

With “Matrix metalloproteinase-14 (Homo sapiens) (from UniProt P50281) L578A”, in the experiment with gors2_rat Gorasp2 [2], the “effect of a mutation on the interaction” value is on record as “decreasing interaction”. “Matrix metalloproteinase-15 (Homo sapiens), P51511 L658A”: the “effect of a mutation on the interaction” value in the experiment with gors2_rat Gorasp2 [4] is on record as “decreasing interaction”. “Matrix metalloproteinase-14 (Homo sapiens) (from UniProt P50281) C574A”: in the experiment with gors2_rat Gorasp2 [6], the “effect of a mutation on the interaction” value is given as “decreasing interaction”. With “Matrix metalloproteinase-15 (Homo sapiens), P51511 Y660A”, the “effect of a mutation on the interaction” value with gors2_rat Gorasp2 [4] was “decreasing interaction”. In the case of “Matrix metalloproteinase-14 (Homo sapiens) (from UniProt P50281) Y573A”, the “effect of a mutation on the interaction” value in the experiment with gors2_rat Gorasp2 [1] is “disrupting interaction”. Regarding “Matrix metalloproteinase-14 (Homo sapiens) (from UniProt P50281) H565A”, in the experiment with gors2_rat Gorasp2 [5], the “effect of a mutation on the interaction” value is given as “decreasing interaction”.
